Measured values published in the Immune Epitope Database (IEDB).
Blank lines part the entries; values can stand above or below the sequence they belong to.

Experiments:
HLA-A*29:02 [1] = assay: IEDB peptide-MHC binding, purified MHC/competitive/fluorescence; filed as Kd, often an IC50 or EC50 that approximates it; ≥ and ≤ were set here for values at or beyond the usual limits of such assays
HLA-A*68:02 [2] = assay: IEDB peptide-MHC binding, purified MHC/competitive/radioactivity; filed as Kd, often an IC50 or EC50 that approximates it; ≥ and ≤ were set here for values at or beyond the usual limits of such assays; details: source organism: Dengue virus 1 Brazil/97-11/1997
HLA-B*57:01 [3] = assay: as above
HLA-A*02:06 = assay: as above
HLA-A*02:03 [4] = assay: as above
HLA-A*02:01 [5] = assay: as above
HLA-A*02:17 = assay: as above
HLA-B*53:01 = assay: as above; details: source organism: Dengue virus 1 Brazil/97-11/1997
HLA-A*32:01 = assay: as above; details: source organism: Dengue virus 1 Brazil/97-11/1997
HLA-A*23:01 [6] = assay: as above; details: source organism: Vaccinia virus WR
HLA-A*24:02 = assay: as above; details: source organism: Vaccinia virus WR
HLA-A*01:01 = assay: IEDB peptide-MHC binding, purified MHC/competitive/fluorescence; filed as Kd, often an IC50 or EC50 that approximates it; ≥ and ≤ were set here for values at or beyond the usual limits of such assays
HLA-B*39:01 = assay: as above
HLA-B*27:03 = assay: as above
HLA-A*02:01 [7] = assay: as above; details: source organism: Orthohantavirus andesense
HLA-B*51:01 = assay: as above
HLA-B*46:01 = assay: as above
HLA-B*57:01 [8] = assay: as above
HLA-A*02:11 = assay: IEDB peptide-MHC binding, purified MHC/direct/fluorescence; filed as Kd, often an IC50 or EC50 that approximates it; ≥ and ≤ were set here for values at or beyond the usual limits of such assays
HLA-A*23:01 [9] = assay: as above; details: source organism: Orthohantavirus andesense
HLA-A*24:03 [10] = assay: as above
HLA-A*02:03 [11] = assay: as above
HLA-A*26:01 [12] = assay: as above; details: source organism: Orthohantavirus andesense
HLA-A*02:19 = assay: as above
HLA-A*02:12 = assay: as above
HLA-A*03:01 = assay: as above
HLA-A*68:02 [13] = assay: as above; details: source organism: Orthohantavirus andesense
HLA-A*24:03 [14] = assay: IEDB peptide-MHC binding, purified MHC/competitive/fluorescence; filed as Kd, often an IC50 or EC50 that approximates it; ≥ and ≤ were set here for values at or beyond the usual limits of such assays
HLA-A*26:01 [15] = assay: as above
HLA-A*69:01 = assay: as above; details: source organism: Orthohantavirus andesense
HLA-B*18:01 = assay: as above
HLA-A*29:02 [16] = assay: IEDB peptide-MHC binding, purified MHC/direct/fluorescence; filed as Kd, often an IC50 or EC50 that approximates it; ≥ and ≤ were set here for values at or beyond the usual limits of such assays
HLA-A*02:16 = assay: as above
HLA-A*68:02 [17] = assay: IEDB peptide-MHC binding, purified MHC/competitive/fluorescence; filed as Kd, often an IC50 or EC50 that approximates it; ≥ and ≤ were set here for values at or beyond the usual limits of such assays; details: source organism: Rickettsia sibirica 246
HLA-B*15:01 = assay: as above; details: source organism: Orthohantavirus tulaense
HLA-B*40:01 = assay: IEDB peptide-MHC binding, purified MHC/direct/fluorescence; filed as Kd, often an IC50 or EC50 that approximates it; ≥ and ≤ were set here for values at or beyond the usual limits of such assays; details: source organism: Orthohantavirus puumalaense
[18] = source organism: Dengue virus 1 Brazil/97-11/1997
[19] = source organism: Dengue virus 3 Martinique/1243/1999
[20] = source organism: Dengue virus 3 China/80-2/1980
[21] = source organism: Dengue virus 2 Peru/IQT2913/1996
[22] = source organism: Dengue virus 2 Thailand/NGS-C/1944
[23] = source organism: Dengue virus 1 Singapore/S275/1990
[24] = source organism: Dengue virus 2 Jamaica/1409/1983
[25] = source organism: Dengue virus 4 Philippines/H241/1956
[26] = source organism: Orthohantavirus andesense
[27] = source organism: Orthohantavirus tulaense

Sequence: AWISSMLLY
Kd (HLA-A*29:02 [1]; source organism: Brucella suis ATCC 23445): 0.2 nM

Sequence: GTSHNILVEV
Kd (HLA-A*68:02 [2]): 15 nM
Kd (HLA-B*57:01 [3]; [18]): 758 nM

Sequence: GIMTIDLDPV
Kd (HLA-A*02:06; [19]): 83 nM
Kd (HLA-A*02:03 [4]; [19]): 25.2 nM
Kd (HLA-A*02:01 [5]; [20]): 11.7 nM
Kd (HLA-A*02:17; [20]): 2080 nM

Sequence: QFLAPDDRY
Kd (HLA-A*29:02 [1]; source organism: Vibrio cholerae 2740-80): 3.2 nM

Sequence: MIIMLIPTV
Kd (HLA-A*02:06; [21]): 7.5 nM
Kd (HLA-A*02:03 [4]; [21]): 4.4 nM
Kd (HLA-A*02:01 [5]; [22]): 3.89 nM
Kd (HLA-A*02:17; [22]): 0.634 nM

Sequence: EAVEDERFW
Kd (HLA-B*53:01): 80.8 nM
Kd (HLA-B*57:01 [3]; [18]): 84.5 nM

Sequence: LMLVAHYAI
Kd (HLA-A*02:01 [5]; [23]): 6.46 nM
Kd (HLA-A*32:01): 5.57 nM
Kd (HLA-A*02:17; [23]): 15.8 nM

Sequence: VTDTNKFDNY
Kd (HLA-A*23:01 [6]): ≥ 70000 nM
Kd (HLA-A*24:02): ≥ 70300 nM
Kd (HLA-A*01:01; source organism: Vaccinia virus WR): 4.9 nM

Sequence: VLNPYMPSV
Kd (HLA-A*02:06; [24]): 6.19 nM
Kd (HLA-A*02:03 [4]; [24]): 6.6 nM
Kd (HLA-A*02:01 [5]; [24]): 1.38 nM
Kd (HLA-A*02:17; [24]): 8.12 nM

Sequence: LLATSIFKL
Kd (HLA-A*02:03 [4]; [18]): 14.3 nM
Kd (HLA-A*02:01 [5]; [23]): 5 nM
Kd (HLA-A*02:17; [23]): 22.7 nM

Sequence: YQGKTVWFV
Kd (HLA-A*02:06; [25]): 12.3 nM
Kd (HLA-A*02:01 [5]; [25]): 9.87 nM
Kd (HLA-A*02:17; [25]): 201 nM

Sequence: NTSMAMTCIA
Kd (HLA-B*57:01 [3]; [25]): 11700 nM

Sequence: YQLAVTIMA
Kd (HLA-A*02:06; [24]): 19.8 nM
Kd (HLA-A*02:01 [5]; [24]): 42.3 nM
Kd (HLA-A*02:17; [24]): 10800 nM

Kd (HLA-A*01:01; source organism: Mus musculus): 4280 nM
Kd (HLA-A*29:02 [1]; source organism: Mus musculus): ≤ 0.1 nM
Sequence: SWNNHSYLY

Sequence: AVSMANIFRG
Kd (HLA-B*57:01 [3]; [24]): 37.2 nM

Sequence: EVLKAMSLY
Kd (HLA-B*39:01; [26]): ≥ 20000 nM
Kd (HLA-B*27:03; [26]): ≥ 20000 nM
Kd (HLA-A*02:01 [7]): ≥ 20000 nM
Kd (HLA-B*51:01; [26]): ≥ 20000 nM
Kd (HLA-B*46:01; [26]): ≥ 20000 nM
Kd (HLA-B*57:01 [8]; [26]): ≥ 20000 nM
Kd (HLA-A*02:11; [26]): ≥ 20000 nM
Kd (HLA-A*23:01 [9]): ≥ 20000 nM
Kd (HLA-A*24:03 [10]; [26]): ≥ 20000 nM
Kd (HLA-A*02:03 [11]; [26]): ≥ 20000 nM
Kd (HLA-A*26:01 [12]): 3.9 nM
Kd (HLA-A*02:19; [26]): ≥ 20000 nM
Kd (HLA-A*02:12; [26]): ≥ 20000 nM
Kd (HLA-A*03:01; [26]): ≥ 20000 nM
Kd (HLA-A*68:02 [13]): ≥ 20000 nM

Sequence: DWMDRIEEF
Kd (HLA-B*39:01; [26]): ≥ 20000 nM
Kd (HLA-B*27:03; [26]): ≥ 20000 nM
Kd (HLA-A*24:03 [14]; [26]): 156 nM
Kd (HLA-A*26:01 [15]; [26]): ≥ 20000 nM
Kd (HLA-A*69:01): ≥ 20000 nM
Kd (HLA-A*02:01 [7]): ≥ 20000 nM
Kd (HLA-B*51:01; [26]): ≥ 20000 nM
Kd (HLA-B*46:01; [26]): ≥ 20000 nM
Kd (HLA-B*57:01 [8]; [26]): ≥ 20000 nM
Kd (HLA-B*18:01; [26]): ≥ 20000 nM
Kd (HLA-A*02:11; source organism: Maporal virus): ≥ 20000 nM
Kd (HLA-A*02:03 [11]; source organism: Maporal virus): ≥ 20000 nM
Kd (HLA-A*02:19; source organism: Maporal virus): ≥ 20000 nM
Kd (HLA-A*02:12; source organism: Maporal virus): ≥ 20000 nM
Kd (HLA-A*29:02 [16]; source organism: Maporal virus): ≥ 20000 nM
Kd (HLA-A*03:01; source organism: Maporal virus): ≥ 20000 nM
Kd (HLA-A*02:16; source organism: Maporal virus): ≥ 20000 nM

Sequence: FIHFDHVPI
Kd (HLA-A*68:02 [17]): 24.7 nM

Kd (HLA-A*24:03 [14]; source organism: Escherichia coli 536): 1060 nM
Sequence: PYKIPATVI

Sequence: APKDLLPWY
Kd (HLA-A*29:02 [1]; source organism: Bacillus anthracis str. A0488): 2540 nM

Sequence: AESICSYWL
Kd (HLA-B*39:01; [27]): ≥ 20000 nM
Kd (HLA-B*27:03; [27]): ≥ 20000 nM
Kd (HLA-A*26:01 [15]; [27]): ≥ 20000 nM
Kd (HLA-B*51:01; [27]): ≥ 20000 nM
Kd (HLA-B*15:01): ≥ 20000 nM
Kd (HLA-B*46:01; [27]): ≥ 20000 nM
Kd (HLA-B*57:01 [8]; [27]): ≥ 20000 nM
Kd (HLA-B*18:01; [27]): ≥ 20000 nM
Kd (HLA-A*02:11; [27]): ≥ 20000 nM
Kd (HLA-B*40:01): 0.3 nM
Kd (HLA-A*24:03 [10]; [27]): ≥ 20000 nM
Kd (HLA-A*02:03 [11]; [27]): ≥ 20000 nM
Kd (HLA-A*02:19; [27]): ≥ 20000 nM
Kd (HLA-A*02:12; [27]): ≥ 20000 nM
Kd (HLA-A*29:02 [16]; [27]): ≥ 20000 nM
Kd (HLA-A*03:01; [27]): ≥ 20000 nM
Kd (HLA-A*02:16; [27]): ≥ 20000 nM

Sequence: LTMDREMLY
Kd (HLA-A*01:01; source organism: Bacillus cereus G9241): 5.1 nM

Sequence: QVSRPMFLY
Kd (HLA-A*01:01; source organism: Influenza A virus (A/X-31(H3N2))): ≥ 20000 nM

Sequence: VMLLVLCAV
Kd (HLA-A*02:06; [19]): 12.4 nM
Kd (HLA-A*02:03 [4]; [19]): 775 nM
Kd (HLA-A*02:01 [5]; [20]): 14.7 nM
Kd (HLA-A*02:17; [20]): ≥ 28700 nM

Sequence: LLMLLPTALA
Kd (HLA-A*02:03 [4]; [18]): 49.9 nM
Kd (HLA-A*02:01 [5]; [23]): 128 nM
Kd (HLA-A*02:17; [23]): 5210 nM

Sequence: LNRPDIGLY
Kd (HLA-A*29:02 [1]; source organism: Campylobacter jejuni): 306 nM

Sequence: KFGPYVSDY
Kd (HLA-A*29:02 [1]; source organism: Yersinia pseudotuberculosis IP 31758): 110 nM
